Measured values from article PMC3575409, “Identification of a Novel Protein-Protein Interaction Motif Mediating Interaction of GPCR-Associated Sorting Proteins with G Protein-Coupled Receptors” (PLoS ONE, 2013).
“And” between values parts separate entries of the source, which are not always exact repeats. Equal entries are not always repeated.

Test system: full-length CNR2 (cannabinoid receptor type 2)
Experiment: SPR saturation binding, CNR2
Set-up: species or system human
Protocol: The human ADRB2 and CNR2 receptors were produced using the P. pastoris expression system as previously described, [16]. After methanol-induced receptor expression, cells were washed with PBS pH 7.0 and resuspended in ice-cold buffer A (50 mM Tris-HCl pH 7.4, 500 mM NaCl, 10% glycerol, 5 mM EDTA, 1 mM PMSF, 2 mM DDT). Cells were then lysed with two cycles of 20 s shaking and 20 s cooling on ice using 0.5 mm glass beads in a FastPrep 24 device. Unbroken cells and cell debris were removed by centrifugation (3000 g, 5 min, 4°C) and the membrane fraction from the supernatant was pelleted by ultracentrifugation (100,000 g, 45 min, 4°C). […] Finally membranes were resuspended in buffer B and quantified with the bicinchoninic acid (BCA) method (Pierce).
Approximately 150 mg membrane proteins were extracted by 5 min incubation at room temperature in buffer C (50 mM Tris-HCl pH 7.4, 500 mM NaCl, 10% glycerol, 1 mM PMSF, 2 mM DTT, 50 mM imidazole, 1% (w/v) DDM, 0.1% (w/v) CHS). […] Imidazole was removed from the eluted fraction using a HiTrap 5 ml desalting column (GE Healthcare), purified proteins were quantified using the BCA assay (Pierce) and receptor integrity was analyzed by SDS-PAGE. […]

B1: central domain of GASP-1: central portion of GASP-1 (AA 380 to 1073) that contains 19 GASP motif (protein)
chain: MTKEEAKTKARARAKQEARSEEEALIGTWFWATDESSMADEASIESSLQVEDESIIGSWFWTEEEASMGTGASSKSRPRTDGERIGDSLFGAREKTSMKTGAEATSESILAADDEQVIIGSWFWAGEEVNQEAEEETIFGSWFWVIDAASVESGVGVSCESRTRSEEEEVIGPWFWSGEQVDIEAGIGEEARPGAEEETIFGSWFWAENQTYMDCRAETSCDTMQGAEEEEPIIGSWFWTRVEACVEGDVNSKSSLEDKEEAMIPCFGAKEEVSMKHGTGVRCRFMAGAEETNNKSCFWAEKEPCMYPAGGGSWKSRPEEEEDIVNSWFWSRKYTKPEAIIGSWLWATEESNIDGTGEKAKLLTEEETIINSWFWKEDEAISEATDREESRPEAEEGDIIGSWFWAGEEDRLEPAAETREEDRLAAEKEGIVGSWFGAREETIRREAGSCSKSSPKAEEEEVIIGSWFWEEEASPEAVAGVGFESKPGTEEEEITVGSWFWPEEEASIQAGSQAVEEMESETEEETIFGSWFWDGKEVSEEAGPCCVSKPEDDEEMIVESWFWSRDKAIKETGTVATCESKPENEEGAIVGSWFEAEDEVDNRTDNGSNCGSRTLADEDEAIVGSWFWAGDEAHFESNPSPVFRAICRSTCSVEQEPDPSRRPQSWEEVTVQFKPGPWGRVGFPSISPFRFPKE
modifications: left off: GST, N-terminal, kept
notes: central portion of GASP-1 (AA 380 to 1073) that contains 19 GASP motif
Q: For B1, which “dissociation rate constant k d” value (25°C, 50 mM Tris-HCl pH 7.4, 150 mM NaCl, 0.1% DDM, 0.01% CHS, captured GST-tagged central domain (AA 380–1073)) is on record?
A: The value was 6.5±0.1×10^−4 s^−1 and < 10^−3 s^−1.

Q: What about the “kinetics of the interaction” value (full-length CNR2) of the same molecule?
A: The value was “very stable and had a slow association rate”.
